These results are taken from patent publication US10745460B2, “Peptides and combination of peptides for use in immunotherapy against various tumors” (Immatics Biotechnologies GmbH, priority 2015, dated 2020).

The assay concerns the target HLA-A*02:01 (Homo sapiens, UniProt P04439, D140Y/D185E/D98H/E176V/E277Q/G131W/G231S/I119V/I121R/I166T/I218V/L300P/L318F/N151K/N90K/P208A/P217A/Q86G/Q94H/R138H/R169H/T345S). Nature of the assay: MHC binding assay: UV-ligand exchange with β2m ELISA (peptide exchange yield). Conditions: binding to HLA-A*02:01 evaluated by peptide exchange yield (UV-ligand exchange, β2m ELISA). The source says: Candidate peptides for T cell based therapies according to the present invention were further tested for their MHC binding capacity (affinity). The individual peptide-MHC complexes were produced by UV-ligand exchange, where a UV-sensitive peptide is cleaved upon UV-irradiation, and exchanged with the peptide of interest as analyzed. Only peptide candidates that can effectively bind and stabilize the peptide-receptive MHC molecules prevent dissociation of the MHC complexes. To determine the yield of the exchange reaction, an ELISA was performed based on the detection of the light chain (β2m) of stabilized MHC complexes. The assay was performed as generally described in Rodenko et al. (Rodenko et al., 2006).
96 well MAXISorp plates (NUNC) were coated over night with 2 ug/ml streptavidin in PBS at room temperature, washed 4× and blocked for 1 h at 37° C. in 2% BSA containing blocking buffer. Refolded HLA-A*02:01/MLA-001 monomers served as standards, covering the range of 15-500 ng/ml. Peptide-MHC monomers of the UV-exchange reaction were diluted 100 fold in blocking buffer. Samples were incubated for 1 h at 37° C., washed four times, incubated with 2 ug/ml HRP conjugated anti-β2m for 1 h at 37° C., washed again and detected with TMB solution that is stopped with […]. Absorption was measured at 450 nm. Candidate peptides that show a high exchange yield (preferably higher than 50%, most preferred higher than 75%) are generally preferred for a generation and production of antibodies or fragments thereof, and/or T cell receptors or fragments thereof, as they show sufficient avidity to the MHC molecules and prevent dissociation of the MHC complexes.
As to “136 (LLWDAPAKC; listed as Homo sapiens) [compound 136]”, the Peptide exchange result was “+++ (≥50 = +++)”. Regarding “137 (KLIYKDLVSV; listed as Homo sapiens) [compound 137]”, the Peptide exchange entry is listed as “++ (≥20% = ++)”.

As to “138 (GIINKLVTV; listed as Homo sapiens) [compound 138]”, the Peptide exchange entry was “++ (≥20% = ++)”. On to “139 (IILENIQSL; listed as Homo sapiens) [compound 139]”, for which the Peptide exchange entry is “+++ (≥50 = +++)”.

For the substance “140 (FLDSQITTV; listed as Homo sapiens) [compound 140]”, the Peptide exchange entry was “+++ (≥50 = +++)”. With “141 (NIDINNNEL; listed as Homo sapiens) [compound 141]”, the Peptide exchange entry was “++ (≥20% = ++)”. Take “142 (LLDAAHASI; listed as Homo sapiens) [compound 142]”: the Peptide exchange entry is “++ (≥20% = ++)”. As to “143 (MLWESIMRV; listed as Homo sapiens) [compound 143]”, the Peptide exchange entry is listed as “+++ (≥50 = +++)”. With “144 (FLISQTPLL; listed as Homo sapiens) [compound 144]” the entry was “+++ (≥50 = +++)”; with “145 (ALEEKLENV; listed as Homo sapiens) [compound 145]”, “+++ (≥50 = +++)”; with “146 (VVAAHLAGA; listed as Homo sapiens) [compound 146]”, “++ (≥20% = ++)”. Regarding “147 (GLLSALENV; listed as Homo sapiens) [compound 147]”, the Peptide exchange result was “+++ (≥50 = +++)”.

Take “148 (YLILSSHQL; listed as Homo sapiens) [compound 148]”: the Peptide exchange result was “+++ (≥50 = +++)”. Regarding “149 (NMADGQLHQV; listed as Homo sapiens) [compound 149]”, the Peptide exchange entry is listed as “++ (≥20% = ++)”. Under “150 (VLLDMVHSL; listed as Homo sapiens) [compound 150]” stands “+++ (≥50 = +++)”; under “151 (DISKRIQSL; listed as Homo sapiens) [compound 151]”, “++ (≥20% = ++)”. “153 (KLVELEHTL; listed as Homo sapiens) [compound 153]”: the Peptide exchange entry is recorded as “+++ (≥50 = +++)”.

As to “154 (AIIKEIQTV; listed as Homo sapiens) [compound 154]”, the Peptide exchange entry is reported as “++ (≥20% = ++)”. Turning to “155 (TLDSYLKAV; listed as Homo sapiens) [compound 155]”, the Peptide exchange result is given as “++ (≥20% = ++)”. As for “157 (ILQDGQFLV; listed as Homo sapiens) [compound 157]”, the Peptide exchange result was “++ (≥20% = ++)”. On to “158 (YLDPLWHQL; listed as Homo sapiens) [compound 158]”, for which the Peptide exchange result is on record as “+++ (≥50 = +++)”. Consider “159 (QLGPVPVTI; listed as Homo sapiens) [compound 159]”, for which the Peptide exchange entry is “+++ (≥50 = +++)”. Take “160 (TLQEWLTEV; listed as Homo sapiens) [compound 160]”: the Peptide exchange result is “+++ (≥50 = +++)”. Under “161 (NLLDENVCL; listed as Homo sapiens) [compound 161]” stands “++++ (≥75% = ++++)”; under “162 (GLLGNLLTSL; listed as Homo sapiens) [compound 162]”, “+++ (≥50 = +++)”; under “163 (GLEERLYTA; listed as Homo sapiens) [compound 163]”, “++ (≥20% = ++)”. With “164 (MLIIRVPSV; listed as Homo sapiens) [compound 164]” the entry was “+++ (≥50 = +++)”; with “165 (SLLDYEVSI; listed as Homo sapiens) [compound 165]”, “+++ (≥50 = +++)”; with “166 (LLGDSSFFL; listed as Homo sapiens) [compound 166]”, “+++ (≥50 = +++)”. For “167 (LVVDEGSLVSV; listed as Homo sapiens) [compound 167]”, the Peptide exchange entry is “+++ (≥50 = +++)”. With “168 (VIFEGEPMYL; listed as Homo sapiens) [compound 168]” the entry was “+++ (≥50 = +++)”.

As for “169 (ALADLSVAV; listed as Homo sapiens) [compound 169]”, the Peptide exchange result is listed as “+++ (≥50 = +++)”.

As for “170 (FIAAVVEKV; listed as Homo sapiens) [compound 170]”, the Peptide exchange result is reported as “++ (≥20% = ++)”. On to “171 (LLLLDVPTA; listed as Homo sapiens) [compound 171]”, for which the Peptide exchange entry was “++ (≥20% = ++)”.

“173 (RLIDIYKNV; listed as Homo sapiens) [compound 173]”: the Peptide exchange entry is “+++ (≥50 = +++)”. “174 (ALYSGDLHAA; listed as Homo sapiens) [compound 174]”: the Peptide exchange entry is reported as “++ (≥20% = ++)”.

In the case of “175 (SLLDLVQSL; listed as Homo sapiens) [compound 175]”, the Peptide exchange entry is “+++ (≥50 = +++)”. “176 (VQSGLRILL; listed as Homo sapiens) [compound 176]”: the Peptide exchange entry is on record as “++ (≥20% = ++)”. In the case of “177 (ALINVLNAL; listed as Homo sapiens) [compound 177]”, the Peptide exchange entry is on record as “+++ (≥50 = +++)”. With “178 (SLVSWQLLL; listed as Homo sapiens) [compound 178]”, the Peptide exchange result is “++++ (≥75% = ++++)”.

“179 (TLGEIIKGV; listed as Homo sapiens) [compound 179]”: the Peptide exchange result was “+++ (≥50 = +++)”. As to “180 (RLYEEEIRI; listed as Homo sapiens) [compound 180]”, the Peptide exchange entry is “+++ (≥50 = +++)”.

As for “181 (LLWAPTAQA; listed as Homo sapiens) [compound 181]”, the Peptide exchange entry is “+++ (≥50 = +++)”. With “182 (GLQDGFQITV; listed as Homo sapiens) [compound 182]” the entry was “+++ (≥50 = +++)”; with “183 (ALSYILPYL; listed as Homo sapiens) [compound 183]”, “+++ (≥50 = +++)”; with “184 (ALDSTIAHL; listed as Homo sapiens) [compound 184]”, “++ (≥20% = ++)”. With “185 (TLYQGLPAEV; listed as Homo sapiens) [compound 185]”, the Peptide exchange entry is recorded as “++ (≥20% = ++)”.

For the substance “187 (SILKEDPFL; listed as Homo sapiens) [compound 187]”, the Peptide exchange result is given as “++ (≥20% = ++)”. With “188 (VLGEEQEGV; listed as Homo sapiens) [compound 188]”, the Peptide exchange result is listed as “++ (≥20% = ++)”.

On to “190 (SLSTELFKV; listed as Homo sapiens) [compound 190]”, for which the Peptide exchange entry is listed as “+++ (≥50 = +++)”. Consider “191 (AAIEIFEKV; listed as Homo sapiens) [compound 191]”, for which the Peptide exchange result is given as “+++ (≥50 = +++)”.

“192 (TLLPSSGLVTL; listed as Homo sapiens) [compound 192]”: the Peptide exchange result is recorded as “++ (≥20% = ++)”. As to “193 (ALFHMNILL; listed as Homo sapiens) [compound 193]”, the Peptide exchange result is on record as “+++ (≥50 = +++)”. For the substance “194 (KLLEEVQLL; listed as Homo sapiens) [compound 194]”, the Peptide exchange result is “++ (≥20% = ++)”. Take “195 (VIIQNLPAL; listed as Homo sapiens) [compound 195]”: the Peptide exchange result is recorded as “+++ (≥50 = +++)”. For “198 (ILTNKVVSV; listed as Homo sapiens) [compound 198]”, the Peptide exchange result was “++ (≥20% = ++)”. Consider “199 (SVADLAHVL; listed as Homo sapiens) [compound 199]”, for which the Peptide exchange entry is “++ (≥20% = ++)”. Turning to “200 (IMPTFDLTKV; listed as Homo sapiens) [compound 200]”, the Peptide exchange result is listed as “+++ (≥50 = +++)”. With “203 (FLFVDPELV; listed as Homo sapiens) [compound 203]”, the Peptide exchange result is given as “++ (≥20% = ++)”.

Take “204 (SEWGSPHAAVP; listed as Homo sapiens) [compound 204]”: the Peptide exchange result is given as “+++ (≥50 = +++)”. Regarding “206 (GLDAFRIFL; listed as Homo sapiens) [compound 206]”, the Peptide exchange entry is recorded as “++++ (≥75% = ++++)”.

“207 (KLFETVEEL; listed as Homo sapiens) [compound 207]”: the Peptide exchange entry was “+++ (≥50 = +++)”. As to “208 (HLNNDRNPL; listed as Homo sapiens) [compound 208]”, the Peptide exchange entry is “++ (≥20% = ++)”. Consider “210 (GLAGDNIYL; listed as Homo sapiens) [compound 210]”, for which the Peptide exchange entry is recorded as “+++ (≥50 = +++)”. For “211 (LLTTVLINA; listed as Homo sapiens) [compound 211]”, the Peptide exchange result is “+++ (≥50 = +++)”.
